According to patent publication US20220403013A1:

Target: malondialdehyde-modified LDL (MDA-LDL), human (human) (UniProt P04114)
Test: ELISA, MDA-LDL immobilised on plate, antibody titrated (0.01-50 µg/ml), HRP anti-human IgG detection

Kd: 8 nM
Substance: orticumab (antibody)
